Drawing on patent US20200207857A1, this text covers Kd for 33 molecules.

Test [1] addresses Recombinant protein Claudin 18.2. Nature of the test: ELISA on plate-coated recombinant Claudin 18.2, OD370; Kd table under the graph, no unit in the table, unit from the x axis log[antibody] nM.
Test [2] shares this target. The test can be described thus: ELISA on plate-coated recombinant Claudin 18.2, OD450; Kd table under the graph, no unit in the table, unit from the x axis log[antibody] nM.
Test [3] shares this target. The description is as above. The source holds these as a separate data set.
For test [4] the target is unchanged. The test can be described thus: ELISA-based assay on Claudin 18.2, y axis RLU; Kd table under the graph, no unit in the table, unit from the x axis log[antibody] nM.
For test [5] the target is unchanged. The test is described as above. This is another data set of the same source.

Changes are numbered by the printed parent chain.

Sequence of Recombinant protein Claudin 18.2 (chain, as listed by the source limits assumed, form in doubt): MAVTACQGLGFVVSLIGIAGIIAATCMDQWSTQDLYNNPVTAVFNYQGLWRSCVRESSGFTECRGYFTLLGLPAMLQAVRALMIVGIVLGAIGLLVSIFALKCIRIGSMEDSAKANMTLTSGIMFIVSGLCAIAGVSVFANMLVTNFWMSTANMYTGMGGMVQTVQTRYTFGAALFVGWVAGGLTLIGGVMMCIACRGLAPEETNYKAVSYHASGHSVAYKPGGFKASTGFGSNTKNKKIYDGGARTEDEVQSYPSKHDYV

B1: 8C12 (antibody, V domains shown)
VH: EVQLQQSGGGLVQPGGSRKLSCAASGFTFSDYGMAWVRQAPGKGPEWVAFISNLAYSIYSTDTVTGRFTISRENAKNTLYLEMSSLRSDDTAMYYCARGSYYGNSFDYWGQGTTLTVSS
VL: DIVLTQSPAIMSASPGEKVTMTCSASSSVSYMYWYQQKPGSSPKPWIYDTSNLASGFPARFSGSGSGTSYSLIISNMEAEDAATYYCHQRSSYPTFGTGTKLELK
Take B1: the dissociation constant (Kd) in test [1] is 0.0782 nM.

B2: 4G3 (antibody, V domains shown)
VH: KVQLQQSGGGLVQPGGSRKLSCAASGFTFSSFGMHWVRQAPEKGLEWVGYINSGSSTIYYADTVKGRFTISRDNPRNTLFLQMTSLRSEDTAMYYCASGAYYGNAMDYWGQGTSVTVSS
VL: DIVMTQDELSLTVTVGDKVTMNCRSSQSLLNSGNQRNYLTWYQQKPGQPPKLLIYWASTRESGVPDRFTGSGSGTDFTLTISSVQAEDLAVYYCQNVYFYPLTFGTGTKLELK
With B2, in test [1], the equilibrium dissociation constant (Kd) was found to be 0.343 nM.

B3: 14B7 (antibody, V domains shown)
VH: KVKLQESGPELVKPGASVKIPCKASGYTFTDYKMDWVKQSHGKSLEWIGDINPNNGGTIYNQKFKGKATLTVDRSSSTAYMELRSLTSEDTAVYYCARSYYGNSLAYWGQGTLVTVSA
VL: B2 VL with V15A, D17E, N22S, R24K, R36K, Q48L, V97N, F99I, T106A
Consider B3, for which the equilibrium dissociation constant (Kd) in test [1] is 0.2 nM.

B4: h5C9oa (antibody, V domains shown)
VH: EVQLVESGGGLVQPGGSLRLSCAVSGYTFSMNWVRQAPGKGLEWVAWINMYTGEPTYADDFKGRFTISRDDSKNTLYLQMNSLRAEDTAVYYCARLYNGNSLDYWGQGTLVTVSS
VL: DIQMTQSPSSLSASVGDRVTITCKSSQSLLNSGNQKSYLTWYQQKPGKAPKLLIYWASTLESGVPSRFSGSGSGTDYTLTISSLQPEDFATYYCQNAYAFPFTFGQGTKVEIK
Consider B4, for which, in test [2], the Kd came out at 0.0894 nM.

B5: h5C9oc (antibody, V domains shown)
VH: B4 VH
VL: B4 VL with A97G, A99S
Take B5: in test [2], the Kd was found to be 0.0848 nM.

B6: h5C9oaa (antibody, V domains shown)
VH: B4 VH with Y97V, N98R, S101G, L102M
VL: B4 VL with A99S
Take B6: the Kd in test [3] amounted to 0.0815 nM.

B7: h5C9oam (antibody, human IgG1, kappa, V domains shown)
VH: B4 VH with Y97A, N98R, L102I
VL: DIQMTQSPSSLSASVGDRVTITCKSSQSLLNSGNQKSYLTWYQQKPGKAPKLLIYWASTLESGVPSRFSGSGSGTDYTLTISSLQPEDFATYYCQNAYFFPFTFGQGTKVEIKR
Turning to B7, the Kd in test [4] was found to be 0.172 nM.

B8: h5C9ox (antibody, V domains shown)
VH: B4 VH with L96A, Y97S, N98R, S101G, L102M
VL: B4 VL with A99S
As for B8, in test [3], the equilibrium dissociation constant (Kd) was 0.079 nM.

B9: h5C9oab (antibody, V domains shown)
VH: B4 VH
VL: B4 VL with A99Y
As to B9, in test [4], the Kd turned out to be 0.164 nM.

B10: h5C9oah (antibody, V domains shown)
VH: B4 VH with L96S, Y97S, N98R, S101G, L102F
VL: B4 VL with A99S
B10: in test [5], the dissociation constant (Kd) turned out to be 0.236 nM.

B11: h5C9oaf (antibody, V domains shown)
VH: B4 VH with Y97F
VL: B7 VL with F99Y
Consider B11, for which, in test [4], the dissociation constant Kd was found to be 0.162 nM.

B12: h5C9oh (antibody, V domains shown)
VH: B4 VH with N98R
VL: B4 VL with A99E
For the molecule B12, the Kd in test [2] stood at 0.0802 nM; in test [5], 0.201 nM.

B13: h5C9oz (antibody, V domains shown)
VH: B4 VH with Y97S, N98R
VL: B4 VL with A99S
In the case of B13, in test [3], the Kd is 0.0778 nM.

B14: Anti-CLDN 18.2-5C9oag (humanized antibody h5C9oag) (antibody, human IgG1, V domains shown)
VH: B4 VH with Y97A, N98R, L102I
VL: B4 VL with A99S
Consider B14, for which the dissociation constant Kd in test [5] is 0.196 nM.

B15: h5C9od (antibody, V domains shown)
VH: B4 VH
VL: B4 VL with A99W
For the molecule B15, the Kd in test [2] is 0.0876 nM.

B16: h5C9oi (antibody, V domains shown)
VH: B4 VH with L96M
VL: B4 VL with A97S, A99S
In the case of B16, the dissociation constant (Kd) was found to be 0.0868 nM in test [2] and 0.316 nM in test [5].

B17: h5C9oal (antibody, human IgG1, kappa, V domains shown)
VH: B4 VH with Y97A, N98R, L102M
VL: B7 VL with F99Y
Consider B17, for which the equilibrium dissociation constant (Kd) in test [4] amounted to 0.198 nM.

B18: h5C9oar (antibody, V domains shown)
VH: B4 VH with T56N
VL: B4 VL with S32W, E61W, A99S
As to B18, in test [3], the equilibrium dissociation constant (Kd) was found to be 0.149 nM.

B19: h5C9og (antibody, V domains shown)
VH: B4 VH with N98R
VL: B4 VL with A97S, A99S
Take B19: the Kd in test [2] worked out at 0.0884 nM.

B20: Anti-CLDN 18.2-5C9oai (humanized antibody h5C9oai) (antibody, human IgG1, V domains shown)
VH: B4 VH with Y97A, N98R, L102M
VL: B4 VL with A99S
On to B20, for which, in test [5], the Kd worked out at 0.196 nM.

B21: h5C9oad (antibody, V domains shown)
VH: B4 VH with N98R
VL: B4 VL with A99Y
For B21, the Kd in test [4] came to 0.175 nM.

B22: h5C9oak (antibody, human IgG1, kappa, V domains shown)
VH: B4 VH with L96S, Y97S, N98R, S101G, L102F
VL: B7 VL with F99Y
B22: in test [4], the dissociation constant Kd was determined as 0.161 nM.

B23: h5C9of (antibody, V domains shown)
VH: B4 VH
VL: B4 VL with A97S, A99S
For B23, the dissociation constant Kd in test [2] turned out to be 0.103 nM.

B24: h5C9oy (antibody, V domains shown)
VH: B4 VH with L96S, Y97S, N98K, S101G
VL: B4 VL with A99S
Consider B24, for which the Kd in test [3] worked out at 0.103 nM.

B25: h5C9oap (antibody, V domains shown)
VH: B4 VH with P55R
VL: B4 VL with S32W, E61Q, A99S
Regarding B25, the Kd in test [3] was 0.189 nM.

B26: h5C9oaj (antibody, human IgG1, kappa, V domains shown)
VH: B4 VH with Y97A, N98R, L102I
VL: B7 VL with F99Y
Consider B26, for which the Kd in test [4] is 0.173 nM.

B27: h5C9oaq (antibody, V domains shown)
VH: B4 VH with P55Q
VL: B4 VL with S32W, E61F, A99S
On to B27, for which, in test [3], the Kd came out at 0.203 nM.

B28: h5C9oe (antibody, V domains shown)
VH: B4 VH
VL: B4 VL with A99R
As to B28, the equilibrium dissociation constant (Kd) in test [2] was 0.0878 nM.

B29: 14D7 (antibody, V domains shown)
VH: VQLQQSGGGLVQPGGSRKLSCAASGFTFSSFGMHWVRQAPEKGLEWVGYINSGSSTIYYADTVKGRFTISRDNPRNTLFLQMTSLRSEDTAMYYCASGAYYGNAMDYWGQGTSVTVSS
VL: MTQDELSLTVTAGEKVTMSCKSSQSLLNSGNQRNYLTWYQQKPGQPPKLLIYWASTRESGVPNRFTGSGSGTDFTLTISSVQAVDLAVYYCQNNYFYPLTFGSGTKLELK
As to B29, the Kd in test [1] is 0.1 nM.

B30: 5G7 (antibody, V domains shown)
VH: KVQLQESGPELVRPGTSVKVSCKASKYAFTNYLIEWIKQRPGQGLEWIGMINPGSDGSHYNEKFKGKATLTADKSSSTAYMQLSSLTSDDSAVYFCARVGYGNSFAYWGQGTLVTVSA
VL: B29 VL with M18L, P43K, N63D, F65L, S80G, V84E, N94A, F96Y, L99F, L109I
Consider B30, for which, in test [1], the dissociation constant Kd is 0.293 nM.

B31: 5H7 (antibody, V domains shown)
VH: EVKLQESGPSLVKPFQSLSLTCTVTDYSITRGYNWHWIRQFPGNKLEWMGYIHYSGSTNYNPSLKSRISITRDTSKNQFFLQLNSVTTEDTATYYCARDYYGNSFAYWGQGTLVTVFC
VL: DIVMTQDELSLTVTAREKVTMSCKSSQTLFNSGNQKNYLTWYQQKPGQPPKLLIYWASTRESGVPDRFTGSGSGTDFTLTISSVQAEDLAVYYCQNDYIFPYTFGGGTKLEIK
Turning to B31, the Kd in test [1] was 0.136 nM.

B32: 1D5 (antibody, V domains shown)
VH: VQLQESGAELVRPGTSVKVSCKASRYAFTNYLIEWVKQRPGQGLEWIGMINPGSGGTHYNEKFKVKATLTADKSSSTAYMQLNSLTSDDSAVYFCARGGFGNSFAYWGQGTLVTVSA
VL: DIMMTQTPLSLTVTAGEKVTMSCKSSQSLLNGGNLKNYLTWYQQKPGQPPKLLTYWASTRESGVPARFTGSGSGTDFTLTISSVQAEDLAVYYCQNGYFYPYTFGGGTKLEIK
With B32, the Kd in test [1] amounted to 0.055 nM.

B33: 7A10 (antibody, V domains shown)
VH: B32 VH with R25G, H58N, V65G, N83S
VL: B32 VL with T7S, G32S, E61D, G97D
With B33, in test [1], the dissociation constant (Kd) was 0.103 nM.
